We go through 8 molecules from US20080027006A1.

Read-outs that look alike come from different tables or passages of the source.

Assay [1] has as its target HR-C1 (1147-1185) (SARS coronavirus (Urbani strain)). Description: CD at 222 nm of the peptide mixture, 22 °C, 0.05 M K2PO4 buffer.
The target is the same in assay [2].
Assay [3] deals with HR-C2 (1165-1185) (SARS coronavirus (Urbani strain)).
In assay [4] the target is HR-C3 (1158-1185) (SARS coronavirus (Urbani strain)).
Assay [5] addresses HR-C4 (1151-1185) (SARS coronavirus (Urbani strain)).
The target in assay [6] is HR-C1 (1147-1185) (SARS coronavirus (Urbani strain)). As to the kind of experiment: CD thermal denaturation of the mixture at 222 nm.
For assay [7] the target is unchanged. As to the kind of experiment: SEC of equimolar mixture (Superdex 75).

B1: HR-N5 (882-916) (peptide)
peptide: MQMAYRFNGIGVTQNVLYENQKQIANQFNKAISQI
modifications: not checked
For B1, the [θ]222 observed (degrees·cm^2·dmol^-1) in assay [1] was -8500.

B2: HR-N6 (888-922) (peptide)
peptide: FNGIGVTQNVLYENQKQIANQFNKAISQIQESLTT
modifications: not checked
Turning to B2, in assay [2], the [θ]222 observed (degrees·cm^2·dmol^-1) was -8600.

B3: HR-N10 (916-950) (peptide)
peptide: IQESLTTTSTALGKLQDVVNQNAQALNTLVKQLSS
modifications: not checked
Take B3: the T1/2 of the complex in assay [2] is 57 °C; in assay [5], 56 °C. The [θ]222 observed (degrees·cm^2·dmol^-1) is -17700 in assay [2], -3800 in assay [3], -4900 in assay [4] and -17900 in assay [5]. Further, the increase of T1/2 from HR-C1 in assay [6] was determined as 24 °C.

B4: HR-N11 (923-957) (peptide)
peptide: TSTALGKLQDVVNQNAQALNTLVKQLSSNFGAISS
modifications: not checked
On to B4, for which the [θ]222 observed (degrees·cm^2·dmol^-1) in assay [2] is -8000.

B5: HR-N7 (895-929) (peptide)
peptide: QNVLYENQKQIANQFNKAISQIQESLTTTSTALGK
modifications: not checked
As to B5, the [θ]222 observed (degrees·cm^2·dmol^-1) in assay [2] is -7400.

B6: HR-N8 (902-936) (peptide)
peptide: QKQIANQFNKAISQIQESLTTTSTALGKLQDVVNQ
modifications: not checked
Regarding B6, the [θ]222 observed (degrees·cm^2·dmol^-1) in assay [2] is -7900.

B7: HR-N9 (909-943) (peptide)
peptide: FNKAISQIQESLTTTSTALGKLQDVVNQNAQALNT
modifications: not checked
In assay [2], B7 displayed a T1/2 of the complex of 36 °C and a [θ]222 observed (degrees·cm^2·dmol^-1) of -10800. Also, the higher molecular weight complex, percent of observed SEC area units in assay [7] was 30%. Also, the rise of T1/2 relative to HR-C1 alone in assay [6] is 3 °C.

B8: HR-N2 (916-973) (peptide)
peptide: IQESLTTTSTALGKLQDVVNQNAQALNTLVKQLSSNFGAISSVLNDILSRLDKVEAEV
modifications: not checked
In assay [2], B8 showed a T1/2 of the complex of 74 °C and a [θ]222 observed (degrees·cm^2·dmol^-1) of -17900. In addition, the rise of T1/2 relative to HR-N2 alone in assay [6] was determined as 6 °C.
